{"source": "the nanobody polyreactivity screen of Harvey et al. (2022)", "data": [{"assay": "yeast display, Sf9 membrane polyspecificity reagent, FACS + sequencing; frameworks hold sequencing errors", "in_short": "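A nanobody's polyreactivity label depends on the gate it was sorted from. Yeast display cells were stained with 10% biotinylated, detergent-solubilized Sf9 membrane reagent for 1 hour at 4 °C, enriched on streptavidin microbeads and sorted by FACS. The low and high (top ~1%) gates were set on anti-HA fluorescence for expression and streptavidin fluorescence for reagent binding.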", "values": [{"sequence": "QVQLVESGGGLVQAGGSLRLSCAASGLIFQYYAMGWYRQAPGKERELVAGITSGANTNYADSVKGRFTISRDNAKNTVYLQMNSLKPEDTAVYYCATYVSSPYSDIWFKDFDYWGQGTQVTVSS", "polyreactivity (PSR sort gate)": "low polyreactivity"}, {"sequence": "QVQLVESGGGLVQAGGSLRLSCAASGLIFRFNAMGWYRQAPGKERELVAAITRAGSTYYADSVKGRFTISRDNAKNTVYLQMNSLKPEDTAVYYCAAGQYRLPQRGYGYWGQGTQVTVSS", "polyreactivity (PSR sort gate)": "high polyreactivity"}, {"sequence": "QVQLVESGGGLVQAGGSLRLSCAASGLIFRGYAMGWYRQAPGKERELVAAISGSGVTTYYADSVKGRFTISRDYAKNSVYLQMNCLKPEDTAVYYCAASTRYEGNYWGQGTQVTVSS", "polyreactivity (PSR sort gate)": "high polyreactivity"}, {"sequence": "QVQLVESGGGLVQAGGSLRLSCAASGLIFRHYVMGWYRQAPGKERELVAAITSRGGTTYYADSVKGRFTISRDNAKNTVYLQMNSLKPEDTAVYYCNVVQNSRHGYTSYYWGQGTQVTVSS", "polyreactivity (PSR sort gate)": "high polyreactivity"}, {"sequence": "QVQLVESGGGLVQAGGSLRLSCAASGLIFRPYAMGWYRQAPGQERELVAAITSGGSTDYADSVKGRFTISRDNAKNTVYLQMNSLKPEDTAVYYCNADIYPPDGYPWQGDYDYWGQGTQVTVSS", "polyreactivity (PSR sort gate)": "low polyreactivity"}, {"sequence": "QVQLVESGGGLVQAGGSLRLSCAASGLIFRPYTMGWYRQAPGKERELVATISGSGASTNYADSVNGRFTISRDNAKNTVYLQMNSLKPEDTAVYYCKGRCYSRMYYWGQGTQVTVSS", "polyreactivity (PSR sort gate)": "high polyreactivity"}, {"sequence": "QVQLVESGGGLVQAGGSLRLSCAASGLIFRRNAMGWYRQAPGKERELVAAISWSGGSTYYADSVKGRFTISRDNAKNTVYLQMNSLKPEDTAVYYCNRGGFSRYYYWGHGTQVTVSS", "polyreactivity (PSR sort gate)": "low polyreactivity"}, {"sequence": "QVQLVESGGGLVQAGGSLRLSCAASGLIFRRYAMGWYRQAPGKERELVAVISSGGRTYYADSVKGRFTISRDNAKNTVFLQMNSLKPEDTAVYYCAARTRSYWGTYGSYHYDYWGQGTQVTVSS", "polyreactivity (PSR sort gate)": "high polyreactivity"}, {"sequence": "QVQLVESGGGLVQAGGSLRLSCAASGLIFRRYVMGWYRQAPGKERELVAAITSRGTRTYYADSVKGRFTISRDNAKNTVYLQMNSLKPEDTAVYYCNAQIYTYRTGRGYSRMDYWGQGTQVTVSS", "polyreactivity (PSR sort gate)": "high polyreactivity"}, {"sequence": "QVQLVESGGGLVQAGGSLRLSCAASGLIFRSNAMGWYRQAPGKERELVAAISGSGGRTYYADSVKGRFTISRDNANNTVYLQMNSLKPEDTAVYYCAGRWSYRQNGYWGQGTQVTVSS", "polyreactivity (PSR sort gate)": "high polyreactivity"}, {"sequence": "QVQLVESGGGLVQAGGSLRLSCAASGLIFRYSGMGWYRQATGKERELVAAIRWSAGSTYYADSVKGRFTISRDNAKNTVYLQMNSLKPEDTAVYYCAARAPVAGYKYRYDYWGQGTQVTVSS", "polyreactivity (PSR sort gate)": "high polyreactivity"}, {"sequence": "QVQLVESGGGLVQAGGSLRLSCAASGLIFRYYAMGWYRQAPGKERELVAAISLRGGSTYYADSVKGRFTISRDNAKNTVYLQMNSLKPEDTAVYYCAAQWAAFSVANQYGYWGQGTQVTVSS", "polyreactivity (PSR sort gate)": "high polyreactivity"}, {"sequence": "QVQLVESGGGLVQAGGSLRLSCAASGLIFRYYAMGWYSKAPGKERELVAVINYSGGRTYYADSVKGRFTISRDNAKNTVYLQMNSLKPEDTAVYYCAASFASKYEYWGQGTQVTVSS", "polyreactivity (PSR sort gate)": "high polyreactivity"}, {"sequence": "QVQLVESGGGLVQAGGSLRLSCAASGLIFRYYAMGWYSQAPGKEREFVAAISGPGASTYYADSVKGRFTISRDNAKNTVYLQMNSLKPEDTAVYYCNTLLTYGYDYWGQGTQVTVSS", "polyreactivity (PSR sort gate)": "high polyreactivity"}, {"sequence": "QVQLVESGGGLVQAGGSLRLSCAASGLIFSGYAMGWYRQAPGKERELVAAISTRGGSTFYADSVKGRFTISRDNAKNTVYLQMNSLKPEDTAVYYCAADGAGGYYYWGQGTQVTVSS", "polyreactivity (PSR sort gate)": "high polyreactivity"}, {"sequence": "QVQLVESGGGLVQAGGSLRLSCAASGLIFSKNVMGWYRQAPGKERELVAAISQRGGSTYYADSVKGRFTISRDNAKNTVYLQMNSLKPEDTAVYYCAADNTVSHEDYWGQGTQVTVSS", "polyreactivity (PSR sort gate)": "high polyreactivity"}, {"sequence": "QVQLVESGGGLVQAGGSLRLSCAASGLIFSPYAMGWYRQAPGKERELVAAITWSGGSTYYADSVKGRFTISRDNAKNTVYLQMNSLKPEDTAVYYCNAVTTRLALYDYWGQGTQVTVSS", "polyreactivity (PSR sort gate)": "high polyreactivity"}, {"sequence": "QVQLVESGGGLVQAGGSLRLSCAASGLIFSQNAMGWYRQAPGKERELVARITLSGTSTYYADSVKGRFTISRDNAKNTVYLQMNSLKPEDTAVYYCNTRSYSYYVPYRYDYWGQGTQVTVSS", "polyreactivity (PSR sort gate)": "high polyreactivity"}, {"sequence": "QVQLVESGGGLVQAGGSLRLSCAASGLIFSQNAMGWYRQAPGKERELVARITWSGTSTYYADSVKGRFTISRDNAKNTVYLQMNSLKPEDTAVYYCAADRPRGRETVDYWGQGTQVTVSS", "polyreactivity (PSR sort gate)": "high polyreactivity"}, {"sequence": "QVQLVESGGGLVQAGGSLRLSCAASGLIFSRNAMGWYRQAPGKERELVAAISGGGGSTYYADSVKGRFTISRDNAKNTVYLQMNSLKPEDTAVYYCAAKGYWWRTPWIATYDYWGQGTQVTVSS", "polyreactivity (PSR sort gate)": "high polyreactivity"}, {"sequence": "QVQLVESGGGLVQAGGSLRLSCAASGLIFSRYTMGWYRQPPGKERELVAAISSDGSTYYADSVKGRFTISRDNAKNTVYLQMNSLKPEDTAVYYCAARYWVGGRDRYDSWGQGTQVTVSS", "polyreactivity (PSR sort gate)": "high polyreactivity"}, {"sequence": "QVQLVESGGGLVQAGGSLRLSCAASGLIFSRYVMGWYRQAPGKERELVAAISRSGGSTYYADSVKGRFTISRDIAKNTVYLQMNSLKPEDTAVYYCNAGRRTGRYGYWGQGTQVTVSS", "polyreactivity (PSR sort gate)": "high polyreactivity"}, {"sequence": "QVQLVESGGGLVQAGGSLRLSCAASGLIFSTNDMGWYRQAPGKERELVAAITSDVSTYYADSVKGRFTISRDNAKNTVYLQMNSLEPEDTAVYYCAKDDSGYINWRYDYWGQGTQVTVSS", "polyreactivity (PSR sort gate)": "low polyreactivity"}, {"sequence": "QVQLVESGGGLVQAGGSLRLSCAASGLIFSTYYMGWYRQAPRKERELVAAISTGGSTYCADSVKGRFTISRDNAKNTVYLQMNSLKPEDTAVYYCAAGYTYHSWPLYYWDYNYWGQGTQVTVSS", "polyreactivity (PSR sort gate)": "low polyreactivity"}, {"sequence": "QVQLVESGGGLVQAGGSLRLSCAASGLIFSYNDMGWYRQAPGKERELVASISNGGSTNYADSVKGRFTISRDNAKNTVYLQMNSLKPEDTAVYYCAAEGALGEVYWWNVRRYYWGQGTQVTVSS", "polyreactivity (PSR sort gate)": "low polyreactivity"}, {"sequence": "QVQLVESGGGLVQAGGSLRLSCAASGLIFTAYAMGWYRQAPGKERELVAAIDWRGGSTSYADSVKGRFTISRDNAKNTVYLQMNSLKPEDTAVYYCAADYYSKYVRFGYWGQGTQVTVSS", "polyreactivity (PSR sort gate)": "high polyreactivity"}, {"sequence": "QVQLVESGGGLVQAGGSLRLSCAASGLIFTDNTRGWYRQAPGKEREFVADISSSGGITYYADSVKGRFTFSRDNAKNTVYLQMNSLKPEDTAVYYCNAERGYDYLDGYPFFIYDYWGQGTQVTVSS", "polyreactivity (PSR sort gate)": "low polyreactivity"}, {"sequence": "QVQLVESGGGLVQAGGSLRLSCAASGLIFTTNAMGWYRQAPGKERELVAAISTSTGRTYYADSVKGRFTISRDTAKNTVYFQMNSLKPEDTAVYYCAADGFLSYYGFWRYEYWGQGTQVTVSS", "polyreactivity (PSR sort gate)": "high polyreactivity"}, {"sequence": "QVQLVESGGGLVQAGGSLRLSCAASGLIFTYYAMGWYRQAPGKERELVAAIRVNGGSTYYADSVKGRFTISRDNAKNTVYFQMNSLKPEDTAVFYCAADYYRLRAASYLIRLNYWGQGTQVTVSS", "polyreactivity (PSR sort gate)": "high polyreactivity"}, {"sequence": "QVQLVESGGGLVQAGGSLRLSCAASGLIFTYYAMGWYRQAPGKERELVAAITSGGRTNYADSVKGRFTISRDNAKNTVYLQMNSLKPEDTAVYYCAATSSWRANYRTWVYRYDYWGQGTQVTVSS", "polyreactivity (PSR sort gate)": "high polyreactivity"}, {"sequence": "QVQLVESGGGLVQAGGSLRLSCAASGLIFTYYDIGWYRQEPGKERELVASISWDGGRTYYADSVKGRFTIARDNAKKTVYLQMNSLKPEDTAVYYCAKRLGGSPIQARGDFWGQGTQVTVSS", "polyreactivity (PSR sort gate)": "low polyreactivity"}, {"sequence": "QVQLVESGGGLVQAGGSLRLSCAASGLIFVGYAMGWYRQAPGKERELVAAITSGGSTYYADSVKGRFTISRDNAKNTVYLQMNSLKPEDTAVYYCAAQQGISNGTGVSATNPMDYWGHGTQVTVSS", "polyreactivity (PSR sort gate)": "low polyreactivity"}, {"sequence": "QVQLVESGGGLVQAGGSLRLSCAASGLIFVNAMGWYRQAPGKEREFVAAITYSTGSTYYADSVKGRFTISRDNAKNTVYLQMNSLKPEDTAVYYCAKDRSGHGTERDYWGQGTQVTVSS", "polyreactivity (PSR sort gate)": "low polyreactivity"}, {"sequence": "QVQLVESGGGLVQAGGSLRLSCAASGLIFVQYVMGWYRQAPGKERELVAAITDDGNTYYADSVKGRFTISRDNAKNTVYLQMKSLKPEDTAVYYCNAVLRSYDFWPGYGYWGQGTQVTVSS", "polyreactivity (PSR sort gate)": "low polyreactivity"}, {"sequence": "QVQLVESGGGLVQAGGSLRLSCAASGLIFVWYAMGWYRQAPGKERELVAAITRSGGSTYYADSVKGRFTISRDNAKNTVYLQMNSLKPEDTAVYYCAARWKFPSSFYYWGQGTQVTVSS", "polyreactivity (PSR sort gate)": "high polyreactivity"}, {"sequence": "QVQLVESGGGLVQAGGSLRLSCAASGLIFVYNAMGWYRQAPGKEREFVAGITSGGSTNYADSVKGRFTISRDNAKNPVYLQMNSLKPEDTAVYDCAAGYYDLYLWWGYDYWGQGTQLTVSS", "polyreactivity (PSR sort gate)": "high polyreactivity"}, {"sequence": "QVQLVESGGGLVQAGGSLRLSCAASGLIFWLNAMGWYRQAPGKDCELVAAISRGGSTNYADSVKGRFTISRDNAKNTVYFQMNSLKPEDSAVYYCAAGSRRAAWYDYSYPYGYWGQGTQVTVSS", "polyreactivity (PSR sort gate)": "high polyreactivity"}, {"sequence": "QVQLVESGGGLVQAGGSLRLSCAASGLIFWYYAMGRYRQAPGKERELVASISSGGDTTYADSVKGRFTISRDNAKNTVYLQMNSLKPEDTAVYYGAAERYVRVWVAGILHYDYWGQGTQVTVSS", "polyreactivity (PSR sort gate)": "low polyreactivity"}, {"sequence": "QVQLVESGGGLVQAGGSLRLSCAASGLIFYANVMGWYRQAPGKERELVAAISRSGTSTYYADSVKGRFTISRDNAKNTVYFQMNSLKPEDTAVYYCAADFVKRQANRQFDYWGQGTQVTVSS", "polyreactivity (PSR sort gate)": "high polyreactivity"}, {"sequence": "QVQLVESGGGLVQAGGSLRLSCAASGLIFYDNLGWYRQAPGKDRELVAAISSSGGSTSYADSVKGRFTISRDNAKNTVYLPMNSLKPEDTAVYYCAAKWSHVRDGPKYDYWGQGTQVTVSS", "polyreactivity (PSR sort gate)": "low polyreactivity"}, {"sequence": "QVQLVESGGGLVQAGGSLRLSCAASGLIFYDNMGWYRQAPGKERELVAAISSSGGSTNYADSVKGRFTISRDNAKNTVYLQMNSLKPEDTAVYYCAADSYPAYLGFVGFDYWGQGTQVTVSS", "polyreactivity (PSR sort gate)": "low polyreactivity"}, {"sequence": "QVQLVESGGGLVQAGGSLRLSCAASGLIFYDNMGWYRQPPGKERELVAAITVSGGSTYYADSVKGRFTISRDNAKNTVYLQMKSLKPEDTAVYYCARELLSPTYQRWYYYWGQGTQVTVSS", "polyreactivity (PSR sort gate)": "low polyreactivity"}, {"sequence": "QVQLVESGGGLVQAGGSLRLSCAASGLIFYFYAMGWYRQAPGKERELVAGITNVGSTNYADSVKGRFTISRDNAKNTVYLQMNSLKPEDTAVYYCAAQYYTVRSTYDYWGQGTQVTVSS", "polyreactivity (PSR sort gate)": "high polyreactivity"}]}]}
